# Data reported in patent US20050176118A1, “Esterases with lipase activity” (priority 2002, published 2005).
# B1: MpE4WT: wild-type Myzus persicae E4 α-carboxylesterase (SEQ ID NO:3) (protein, listed as Myzus persicae)
# chain: MKNTCGILLNLFLFIGCFLTCSASNTPKVQVHSGEIAGGFEYTYNGRKIYSFLGIPYASPPVQNNRFKEPQPVQPWLGVWNATVPGSACLGIEFGSGSKIIGQEDCLFLNVYTPKLPQENSAGDLMNVIVHIHGGGYYFGEGILYGPHYLLDNNDFVYVSINYRLGVLGFASTGDGVLTGNNGLKDQVAALKWIQQNIVAFGGDPNSVTITGMSAGASSVHNHLISPMSKGLFNRAIIQSGSAFCHWSTAENVAQKTKYIANLMGCPTNNSVEIVECLRSRPAKAIAKSYLNFMPWRNFPFTPFGPTVEVAGYEKFLPDIPEKLVPHDIPVLISIAQDEGLIFSTFLGLENGFNELNNNWNEHLPHILDYNYTISNENLRFKTAQDIKEFYFGDKPISKETKSNLSKMISDRSFGYGTSKAAQHIAAKNTAPVYFYEFGYSGNYSYVAFFDPKSYSRGSSPTHGDETSYVLKMDGFYVYDNEEDRKMIKTMVNIWATFIKSGVPDTENSEIWLPVSKNLADPFRFTKITQQQTFEAREQSTTGIMNFGVAYH
# B2: EST23WT: wild-type Drosophila melanogaster EST23 α-carboxylesterase (SEQ ID NO:2) (protein)
# chain: MNKNLGFVERLRGRLKTIEHKVQQYRQSTNETVVADTEYGQVRGIKRLSLYDVPYFSFEGIPYAQPPVGELRFKAPQRPIPWEGVRDCSQPKDKAVQVQFVFDKVEGSEDCLYLNVYTNNVKPDKARPVMVWIHGGGFIIGEANREWYGPDYFMKEDVVLVTIQYRLGALGFMSLKSPELNVPGNAGLKDQVLALKWIKNNCASFGGDPNCITVFGESAGGASTHYMMLTDQTQGLFHRGILQSGSAICPWAYNGDITHNPYRIAKLVGYKGEDNDKDVLEFLQNVKAKDLIRVEENVLTLEERMNKIMFRFGPSLEPFSTPECVISKPPKEMMKTAWSNSIPMFIGNTSYEGLLWVPEVKLMPQVLQQLDAGTPFIPKELLATEPSKEKLDSWSAQIRDVHRTGSESTPDNYMDLCSIYYFVFPALRVVHSRHAYAAGAPVYFYRYDFDSEELIFPYRIMRMGRGVKGVSHADDLSYQFSSLLARRLPKESREYRNIERTVGIWTQFAATGNPYSEKINGMDTLTIDPVRKSDEVIKCLNISDDLKFIDLPEWPKLKVWESLYDDNKDLLF
# modifications: Drosophila melanogaster
# B3: E3WT: wild-type Lucilia cuprina E3 α-carboxylesterase (SEQ ID NO:1), baculovirus expressed (protein, listed as Lucilia cuprina)
# chain: MNFNVSLMEKLKWKIKCIENKFLNYRLTTNETVVAETEYGKVKGVKRLTVYDDSYYSFEGIPYAQPPVGELRFKAPQRPTPWDGVRDCCNHKDKSVQVDFITGKVCGSEDCLYLSVYTNNLNPETKRPVLVYIHGGGFIIGENHRDMYGPDYFIKKDVVLINIQYRLGALGFLSLNSEDLNVPGNAGLKDQVMALRWIKNNCANFGGNPDNITVFGESAGAASTHYMMLTEQTRGLFHRGILMSGNAICPWANTQCQHRAFTLAKLAGYKGEDNDKDVLEFLMKAKPQDLIKLEEKVLTLEERTNKVMFPFGPTVEPYQTADCVLPKHPREMVKTAWGNSIPTMMGNTSYEGLFFTSILKQMPMLVKELETCVNFVPSELADAERTAPETLEMGAKIKKAHVTGETPTADNFMDLCSHIYFWFPMHRLLQLRFNHTSGTPVYLYRFDFDSEDLINPYRIMRSGRGVKGVSHADELTYFFWNQLAKRMPKESREYKTIERMTGIWIQFATTGNPYSNEIEGMENVSWDPIKKSDEVYKCLNISDELKMIDVPEMDKIKQWESMFEKHRDLF
# Columns and labels:
# [1] = cited from earlier work
# [2] = Fluorometric determination of lipase activity; assay type: biochemical; conditions: 4-MU-palmitate 10^−4M; ± standard error of duplicate assays
# Excerpt: A fluorogenic assay was used to measure lipase activity of insect esterases or lipases, and mutants thereof. The fluorogenic substrate provides rapid reproducible methods for measuring enzymatic activity. Fatty acid esters (acylated) of 4-methylumbelliferone fluorophors are used as substrates for the identification of lipase activity. This assay uses the fluorophore 4-methylumbelliferyl palmitate (4-MU-palmitate) (structure provided below) and is a modification of the fluorometric esterase titration assay of Devonshire et al. (2002) and the method of Hamid et al. (1994) used for the rapid characterisation and identification of Mycobacteria. [drawing 4]
# 4-MU-palmitate is hydrolysed by a lipase to release the fluorescent 4-methylumbelliferone (4-MU), which can be measured by a fluorimeter.
# A standard curve for 4-MU is prepared in each plate alongside the titrations. 25 μL 10^−2M dMU stock (19.8 mg/10 ml in 100% ethanol) was diluted with 2.475 ml (3×825 μl) ethanol to give a 10^−4M solution. This 10^−4M solution was used to prepare a standard curve from 0 to 1.0 μM in 0.1M phosphate buffer pH 7.0 (plus 0.05% or 0.5% ultrapure Triton X-100 (TX100) if present in cell extracts). This was done by dispensing 25 μl, 20 μl, 15 μl, 10 μl, 5 μl, 0 μl (plus ethanol to 25 μl) into tubes and adding 2.475 ml phosphate buffer (or phosphate buffer containing TX100 if required), then adding 100 μl per well. This gives 0.2, 0.4, 0.6, 0.8 and 1.0 uM in 0.25% TX100.
# The samples were read on a Fluorostar fluorometer (BMG LabTechnologies) alongside the following titration reactions using the basic settings: excitation—355 nm, emission—460 nm, gain—zero, 10 cycles of 180 secs with shaking before each cycle.
# For the assay, 20 μl of 5×10^−4 4-MU-palmitate (in 100% acetone) was to the wells that require substrate (II & III as defined in Table 4 below) and air dried. […] Cell extracts should be added immediately before readings start.
# Corrected fluorescence (Fcorrected) was calculated by the following equations. […]
# [3] = Permethrin hydrolysis, radiometric partition assay (acid-labelled substrate); assay type: biochemical; conditions: sequential incubation of trans permethrin with E3WT and E4 from OP resistant aphid homogenates
# Experimental: Expressed enzymes were tested for permethrin hydrolytic activity using a radiometric partition assay for acid-labelled compounds, or a TLC based assay for those labelled in the alcohol moiety (Devonshire and Moores, 1982). […] The power of the analyses was increased by separating permethrin into its cis and trans isomers.
# Preparative thin layer chromatography (TLC) on silica was used to separate the isomers into two enantiomer pairs: 1S/1R cis and 1S/1R trans. […] Enzyme preparations could then be assayed for the hydrolysis of each enantiomer pair.
# This assay (Devonshire and Moores, 1982) is used for permethrin isomers. It relies on incubating the expressed esterase with radiolabelled substrate and then measuring the radioactive cyclopropanecarboxylate anion in the aqueous phase after extracting the unchanged substrate into organic solvent. Based on previous experience, the best extraction protocol utilises a 2:1 (by volume) mixture of methanol and chloroform. […] Subsequent addition of an excess of chloroform and buffer exceeds the capacity of the methanol to hold the phases together, so that the organic phase can be removed and the product measured in the aqueous phase. […]
# [4] = Esterase activity with α-naphthyl acetate; assay type: biochemical; conditions: substrate α-naphthyl acetate; for Km: read-out: α-NA activity Km
# [5] = Hydrolysis of Type II pyrethroid, chloroform-methanol extraction assay; assay type: biochemical; parameters: key: —: Not substantially different from values obtained using control cell extracts
# Experimental: Since the TLC assay is more protracted than the chloroform-methanol extraction procedure, the latter (as described above for acid-labelled pyrethroids) was adopted to measure the 3-phenoxbenzoate anion produced from these substrates.
# For all assays the molar amount of product formed was calculated from the known specific activity of the radiolabelled substrate. […] Assays at concentrations greater than 0.5 μM, which approximates the published aqueous solubility of permethrin, gave erratic results so precluding the measurement of Km and kcat. […] Assay conditions were therefore adjusted to measure the hydrolysis of the more-readily hydrolysed enantiomer in each pair. […] The same considerations about substrate solubility and proportionality of response to its concentration were assumed for all enzymes and substrates.
# The specificity constant (ie kcat/Km) can therefore be calculated from the above equation using the initial hydrolysis rate (pmol/min, calculated from the known specific activity of the radiolabelled substrate) and the concentrations of substrate and enzyme in the assay. The diffusion-limited maximum value for a specificity constant is 10^8-10^9 M^−1sec^−1 (Stryer, 1981).
molecule,measurement,setting,value
CC1(C)C(C=C(Cl)Cl)C1C(=O)OCc1cccc(Oc2ccccc2)c1 (stereo not drawn) [permethrin],published solubility in aqueous solution,[1],0.5 µM
B1,4-MU-palmitate activity,[2],0.1051 ± 0.0033 moles 4MU produced per sec per mole of enzyme
same,enantiomer preference for trans permethrin,[3],preference for the 1S trans enantiomer
same,α-NA activity kcat,[4],3 s⁻¹
same,Km,[4],28 µM
B2,4-MU-palmitate activity,[2],0.0677 ± 0.0032 moles 4MU produced per sec per mole of enzyme
same,α-NA activity kcat,[4],276 s⁻¹
same,Km,[4],82 µM
same,Specificity Constant (kcat/Km) 1R cis αR deltamethrin,[5],—
same,Specificity Constant (kcat/Km) 1R cis αS deltamethrin,[5],—
B3,4-MU-palmitate activity,[2],0.0298 ± 0.0006^1 moles 4MU produced per sec per mole of enzyme
same,enantiomer preference for trans permethrin,[3],preference for the 1S trans enantiomer
same,α-NA activity kcat,[4],248 s⁻¹
same,Km,[4],71 µM
same,Specificity Constant (kcat/Km) 1R cis αR deltamethrin,[5],—
same,Specificity Constant (kcat/Km) 1R cis αS deltamethrin,[5],—
same,Specificity Constant (kcat/Km) 1S cis αR deltamethrin,[5],—^1
same,Specificity Constant (kcat/Km) 1S cis αS deltamethrin,[5],—
